biological target: HLA-A*01:01 (Homo sapiens, UniProt P04439, A114D/A174V/A182V/D101N/D185E/E176A/E190D/L180R/Q94H/R68K/S129P/T187R/V100A/V91M/W191G); assay: MHC binding assay: UV-ligand exchange, ELISA of stabilized MHC complexes (peptide exchange yield); conditions: binding to HLA-A*01:01, UV-ligand exchange
Procedure, shortened: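 Peptide–MHC complexes were formed by UV-induced exchange of a photocleavable ligand for the test peptide. Exchange yield was measured by streptavidin-capture ELISA of 100-fold diluted complexes, detected with HRP anti-β2m at A450. Refolded HLA-A*02:01/MLA-001 monomers at 15-500 ng/ml served as standards.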

| Peptide exchange | Substance |
| --- | --- |
| +++ (>50 = +++) | 243 (LTSEDTGAY; listed as Homo sapiens) [compound 243] |
| ++ (>20% = ++) | 244 (VTKYIAGPY; listed as Homo sapiens) [compound 244] |
| +++ (>50 = +++) | 245 (LSDNAANRY; listed as Homo sapiens) [compound 245] |
| ++ (>20% = ++) | 246 (ARLEGEIATY; listed as Homo sapiens) [compound 246] |
| ++ (>20% = ++) | 247 (SMIRVGTNY; listed as Homo sapiens) [compound 247] |
| +++ (>50 = +++) | 248 (VTDIDELGK; listed as Homo sapiens) [compound 248] |
| +++ (>50 = +++) | 249 (GVGFTELEY; listed as Homo sapiens) [compound 249] |
| ++ (>20% = ++) | 250 (GYVCNACGLY; listed as Homo sapiens) [compound 250] |
| ++ (>20% = ++) | 251 (GIEMTYETY; listed as Homo sapiens) [compound 251] |
| ++ (>20% = ++) | 252 (DTTSHTYLQY; listed as Homo sapiens) [compound 252] |
| ++++ (>75% = ++++) | 253 (YLESHGLAY; listed as Homo sapiens) [compound 253] |
| ++++ (>75% = ++++) | 254 (FLFNDALLY; listed as Homo sapiens) [compound 254] |
| ++ (>20% = ++) | 255 (WELDSLEY; listed as Homo sapiens) [compound 255] |
| ++ (>20% = ++) | 256 (HAFESNNFIY; listed as Homo sapiens) [compound 256] |
| ++++ (>75% = ++++) | 257 (KSEMNVNMKY; listed as Homo sapiens) [compound 257] |
| +++ (>50 = +++) | 258 (RPSSVLTIY; listed as Homo sapiens) [compound 258] |
| ++ (>20% = ++) | 259 (APDEVVALL; listed as Homo sapiens) [compound 259] |
| +++ (>50 = +++) | 260 (KPTEDSANVY; listed as Homo sapiens) [compound 260] |
| ++++ (>75% = ++++) | 261 (MTEGSTVNTEY; listed as Homo sapiens) [compound 261] |
| +++ (>50 = +++) | 262 (NVKHFLNDLY; listed as Homo sapiens) [compound 262] |
| ++ (>20% = ++) | 263 (DCMDTEGSYM; listed as Homo sapiens) [compound 263] |
| ++ (>20% = ++) | 264 (YRDPVFVSL; listed as Homo sapiens) [compound 264] |
| ++ (>20% = ++) | 265 (LSDIDSRYI; listed as Homo sapiens) [compound 265] |
| ++++ (>75% = ++++) | 266 (LTDSFLLRF; listed as Homo sapiens) [compound 266] |
| +++ (>50 = +++) | 267 (IVADDTVY; listed as Homo sapiens) [compound 267] |
| + (>10% =+) | 268 (AILHHLYFY; listed as Homo sapiens) [compound 268] |
| +++ (>50 = +++) | 269 (LPSPAATIWDY; listed as Homo sapiens) [compound 269] |

| Peptide exchange | Substance |
| --- | --- |
| ++ (>20% = ++) | 270 (DLKIDLAAQY; listed as Homo sapiens) [compound 270] |
| ++ (>20% = ++) | 271 (VAEPPVVCSY; listed as Homo sapiens) [compound 271] |
| +++ (>50 = +++) | 272 (IPQDECLRY; listed as Homo sapiens) [compound 272] |
| ++ (>20% = ++) | 273 (CGPNEINHFY; listed as Homo sapiens) [compound 273] |
| +++ (>50 = +++) | 274 (YADIHGDLL; listed as Homo sapiens) [compound 274] |
| +++ (>50 = +++) | 275 (ESDEMENLLTY; listed as Homo sapiens) [compound 275] |
| +++ (>50 = +++) | 276 (QITSFASGTSY; listed as Homo sapiens) [compound 276] |
| ++ (>20% = ++) | 277 (LPAPGFLFY; listed as Homo sapiens) [compound 277] |
| ++ (>20% = ++) | 278 (AATVKSDIY; listed as Homo sapiens) [compound 278] |
| +++ (>50 = +++) | 279 (LMTVLLKY; listed as Homo sapiens) [compound 279] |
| ++++ (>75% = ++++) | 280 (TTEMVSNESVDY; listed as Homo sapiens) [compound 280] |
| ++ (>20% = ++) | 281 (YPDLSELLM; listed as Homo sapiens) [compound 281] |
| ++ (>20% = ++) | 282 (QAMPSWPTAAY; listed as Homo sapiens) [compound 282] |
| ++ (>20% = ++) | 283 (ETILVSSSY; listed as Homo sapiens) [compound 283] |
| ++ (>20% = ++) | 284 (TCSHTFVYY; listed as Homo sapiens) [compound 284] |
| +++ (>50 = +++) | 285 (VLPHHSEGACVY; listed as Homo sapiens) [compound 285] |
| +++ (>50 = +++) | 286 (ATDMEGNLNY; listed as Homo sapiens) [compound 286] |
| +++ (>50 = +++) | 287 (ENSIEDLQY; listed as Homo sapiens) [compound 287] |
| + (>10% =+) | 288 (TEEKFVSY; listed as Homo sapiens) [compound 288] |
| ++++ (>75% = ++++) | 289 (YTSHEDIGY; listed as Homo sapiens) [compound 289] |
| ++ (>20% = ++) | 290 (GQFTGTAGACRY; listed as Homo sapiens) [compound 290] |
| ++++ (>75% = ++++) | 291 (TSDVTGSLTY; listed as Homo sapiens) [compound 291] |
| ++++ (>75% = ++++) | 292 (VLDFAPPGASAY; listed as Homo sapiens) [compound 292] |
| +++ (>50 = +++) | 294 (MMEMEGMY; listed as Homo sapiens) [compound 294] |
| +++ (>50 = +++) | 295 (GQRLDEAMISY; listed as Homo sapiens) [compound 295] |
| ++ (>20% = ++) | 296 (HMLAAMAY; listed as Homo sapiens) [compound 296] |
| +++ (>50 = +++) | 297 (RLDEAMISY; listed as Homo sapiens) [compound 297] |

| Peptide exchange | Substance |
| --- | --- |
| ++ (>20% = ++) | 298 (KFDVINHYF; listed as Homo sapiens) [compound 298] |
| ++ (>20% = ++) | 299 (EVDSVALSL; listed as Homo sapiens) [compound 299] |
| +++ (>50 = +++) | 300 (VSINPNSGDIY; listed as Homo sapiens) [compound 300] |
| +++ (>50 = +++) | 301 (ESQTCASDY; listed as Homo sapiens) [compound 301] |
| +++ (>50 = +++) | 302 (FYLSTPENYHY; listed as Homo sapiens) [compound 302] |
| +++ (>50 = +++) | 303 (GFGGLSSQGVYY; listed as Homo sapiens) [compound 303] |
| ++ (>20% = ++) | 304 (FSENLIYTYI; listed as Homo sapiens) [compound 304] |
| ++++ (>75% = ++++) | 305 (YADLLIYTY; listed as Homo sapiens) [compound 305] |
| ++ (>20% = ++) | 306 (KSFETTVRY; listed as Homo sapiens) [compound 306] |
| +++ (>50 = +++) | 307 (DTDDRELRY; listed as Homo sapiens) [compound 307] |
| + (>10% =+) | 308 (ELAAGQVVY; listed as Homo sapiens) [compound 308] |
| +++ (>50 = +++) | 309 (EVDRNLIQY; listed as Homo sapiens) [compound 309] |
| ++ (>20% = ++) | 310 (KAFQELGVRY; listed as Homo sapiens) [compound 310] |
| ++ (>20% = ++) | 311 (TVTDGTHTDFY; listed as Homo sapiens) [compound 311] |
| ++ (>20% = ++) | 312 (VTDGINPLI; listed as Homo sapiens) [compound 312] |
| +++ (>50 = +++) | 313 (VTDGTHTDFY; listed as Homo sapiens) [compound 313] |
| ++ (>20% = ++) | 314 (PPEANSLQGALY; listed as Homo sapiens) [compound 314] |
| +++ (>50 = +++) | 315 (VLKIELETY; listed as Homo sapiens) [compound 315] |
| ++ (>20% = ++) | 316 (YTCEECGQAF; listed as Homo sapiens) [compound 316] |
| ++ (>20% = ++) | 317 (EDLLEVLDMY; listed as Homo sapiens) [compound 317] |
| +++ (>50 = +++) | 318 (YMTSMALNY; listed as Homo sapiens) [compound 318] |
| ++++ (>75% = ++++) | 319 (FTDPHIITF; listed as Homo sapiens) [compound 319] |
| ++ (>20% = ++) | 320 (QALQDKLQTFY; listed as Homo sapiens) [compound 320] |
| ++ (>20% = ++) | 321 (DGIADASNLSYY; listed as Homo sapiens) [compound 321] |
| ++++ (>75% = ++++) | 322 (FSELNPLALY; listed as Homo sapiens) [compound 322] |
